{
  "source": "patent US7528109",
  "about": "(GEORGETOWN UNIVERSITY, dated 2009)",
  "key": {"[1]": {"molecular_target": "T1, ALK (anaplastic lymphoma kinase) receptor, full length, expressed on cells (human, UniProt Q9UM73 19-1620)", "T1 construct": "U87MG cells carry endogenous human ALK; also called PTNR; PTN receptor", "T1 sequence (Q9UM73 other isoform, or with tags, fused parts or gaps limits assumed)": "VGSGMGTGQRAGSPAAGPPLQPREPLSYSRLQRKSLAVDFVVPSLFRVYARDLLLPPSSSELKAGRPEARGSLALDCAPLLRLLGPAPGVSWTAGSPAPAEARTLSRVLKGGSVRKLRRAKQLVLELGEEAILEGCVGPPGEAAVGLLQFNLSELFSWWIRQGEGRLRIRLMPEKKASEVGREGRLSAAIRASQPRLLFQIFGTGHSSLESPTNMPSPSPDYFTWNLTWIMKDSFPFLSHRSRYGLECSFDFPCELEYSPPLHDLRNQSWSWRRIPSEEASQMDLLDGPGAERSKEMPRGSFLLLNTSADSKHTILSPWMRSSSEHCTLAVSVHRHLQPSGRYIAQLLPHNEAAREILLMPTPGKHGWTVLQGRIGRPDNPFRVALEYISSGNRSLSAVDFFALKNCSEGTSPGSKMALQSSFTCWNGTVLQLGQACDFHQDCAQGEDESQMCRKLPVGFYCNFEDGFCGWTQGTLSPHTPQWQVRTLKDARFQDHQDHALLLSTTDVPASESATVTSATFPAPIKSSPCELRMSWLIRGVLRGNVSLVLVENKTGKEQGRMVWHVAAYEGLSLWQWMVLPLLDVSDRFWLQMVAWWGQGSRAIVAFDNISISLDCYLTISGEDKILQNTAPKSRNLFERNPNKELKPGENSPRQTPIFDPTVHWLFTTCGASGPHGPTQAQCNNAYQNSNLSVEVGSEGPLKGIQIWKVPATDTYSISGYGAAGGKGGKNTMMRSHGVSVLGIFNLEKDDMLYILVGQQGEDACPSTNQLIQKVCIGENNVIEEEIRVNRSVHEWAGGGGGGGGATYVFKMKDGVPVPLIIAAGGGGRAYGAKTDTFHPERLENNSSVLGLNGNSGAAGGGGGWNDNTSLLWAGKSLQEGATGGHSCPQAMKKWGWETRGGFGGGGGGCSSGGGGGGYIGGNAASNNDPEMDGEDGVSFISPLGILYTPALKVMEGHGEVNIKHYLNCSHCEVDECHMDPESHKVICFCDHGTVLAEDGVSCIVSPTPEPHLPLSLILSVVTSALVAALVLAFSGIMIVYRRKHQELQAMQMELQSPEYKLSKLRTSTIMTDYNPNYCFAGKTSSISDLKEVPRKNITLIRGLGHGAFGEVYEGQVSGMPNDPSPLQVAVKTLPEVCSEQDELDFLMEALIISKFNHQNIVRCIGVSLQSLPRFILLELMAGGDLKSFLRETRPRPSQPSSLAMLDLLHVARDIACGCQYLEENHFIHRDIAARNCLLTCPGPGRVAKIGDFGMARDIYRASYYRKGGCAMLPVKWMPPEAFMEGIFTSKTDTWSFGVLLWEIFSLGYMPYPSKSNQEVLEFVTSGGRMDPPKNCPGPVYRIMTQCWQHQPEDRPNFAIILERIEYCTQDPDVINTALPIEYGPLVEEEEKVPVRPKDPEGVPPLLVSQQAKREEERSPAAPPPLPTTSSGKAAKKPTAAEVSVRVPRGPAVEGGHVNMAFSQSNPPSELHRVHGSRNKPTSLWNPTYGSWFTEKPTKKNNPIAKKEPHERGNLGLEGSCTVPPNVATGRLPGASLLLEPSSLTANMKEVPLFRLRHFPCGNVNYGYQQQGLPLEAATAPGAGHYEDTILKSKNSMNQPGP", "assay": "saturation binding of 35S-labeled PTN to 32D/ALK cells"}, "[2]": {"molecular_target": "T1, ALK (anaplastic lymphoma kinase) …", "assay": "saturation binding of 35S-labeled PTN to 32D/ALK cells, non-linear regression", "procedure": "For this, ALK-negative mouse hematopoietic cell line 32D was used which grows in suspension culture and expressed the ALK protein in these cells. Also used was ^35S-labeled PTN from metabolic labeling experiments as a ligand for the receptor binding studies. Briefly, cell lysates were then prepared and a total of 3 mg of cellular proteins subjected to immunoprecipitation as described. (Souttou et al., 1997). For uncoupled antibodies, Sepharose-bound protein G (Gammabind plus, Amersham/Pharmacia) was used to precipitate immunocomplexes. Antibodies were anti-phosphotyrosine (agarose-coupled 4G10, 30 µl; UBI, Lake Placid NY), anti-PTNR (a cocktail of antibodies from Santa Cruz Biotechnology, Santa Cruz Calif. and from Accurate Chemicals, Westburg N.Y.), anti-IRS-1 (3 µg of rabbit IgG). Resulting precipitates were analyzed by SDS polyacrylamide gel electrophoresis. Experimental procedures for immunoblots for phosphotyrosine, IRS-1 (anti-IRS-1, Transduction Laboratories, Lexington Ky.), PLC-gamma (anti-PLC-gamma, UBI)and PI3-kinase (UBI) using unlabelled cells as described (Souttou et al., 1997).\nSaturation binding of radiolabeled PTN to 32D/ALK (filled symbols) and 32D/control cells (open symbols) (FIG. 2b). Data were pooled from two independent experiments with triplicate repeat measurements of data points. […]"}},
  "data": [
    {"binder": "pleiotrophin (PTN), purified from the culture supernatant of cells transfected with the human PTN cDNA (ligand, UniProt P21246 33-168, looked up, also called PTN ligand; radiolabeled PTN) GKKEKPEKKVKKSDCGEWQWSVCVPTSGDCGLGTREGTRTGAECKQTMKTQRCKIPCNWKKQFGAECKYQFQAWGECDLNTALKTRTGSLKRALHNAECQKTVTISKPCGKLTKPKPQAESKKKKKEGKKQEKMLD", "values": [
      {"measurement": "Kd", "setting": "[1]", "value": "30 to 40", "unit": "pM"},
      {"measurement": "Kd", "setting": "[2]", "value": 32, "unit": "pM"}
    ]}
  ]
}
